Assay results: FireProtDB (doi:10.1016/j.jmb.2003.08.024)

B1: Ribonuclease, P00648 (parent)
chain: MMKMEGIALKKRLSWISVCLLVLVSAAGMLFSTAAKTETSSHKAHTEAQVINTFDGVADYLQTYHKLPDNYITKSEAQALGWVASKGNLADVAPGKSIGGDIFSNREGKLPGKSGRTWREADINYTSGFRNSDRILYSSDWLIYKTTDHYQTFTKIR

Variants of: B1
Settings: Bacillus amyloliquefaciens, GdnHCl, Hydrogen exchange, HCl 27.5 mM, reversible: yes, structure 1BNI, whole UniProt chain shown

| Variant | ddG of mutation (higher = less stable) (pH 6.8, 30 °C, Imidazole 50 mM) [kcal/mol] | denaturant m value (pH 6.8, 30 °C, Imidazole 50 mM) [kcal/mol/M] | ddG of mutation (higher = less stable) (pH 7.5, 25 °C, Imidazole 50 mM) [kcal/mol] | denaturant m value (pH 7.5, 25 °C, Imidazole 50 mM) [kcal/mol/M] | ddG of mutation (higher = less stable) (pH 7.6, 37 °C, Imidazole 50 mM) [kcal/mol] | denaturant m value (pH 7.6, 37 °C, Imidazole 50 mM) [kcal/mol/M] | ddG of mutation (higher = less stable) (pH 7.9, 37 °C, Tris 50 mM) [kcal/mol] | denaturant m value (pH 7.9, 37 °C, Tris 50 mM) [kcal/mol/M] |
| --- | --- | --- | --- | --- | --- | --- | --- | --- |
| MMKMEGIALKKRLSWISVCLLVLVSAAGMLFSTAAKTETSSHKAHTEAQVINTFDGVADYLQTYHKLPDNYITKSEAQALGWVASKGNLADVAPGKSIGGDIFSAREGKLPGKSGRTWREADINYTSGFRNSDRILYSSDWLIYKTTDHYQTFTKIR [N105A] | 1.8 | 4.91 | – | – | – | – | – | – |
| MMKMEGIALKKRLSWISVCLLVLVSAAGMLFSTAAKTETSSHKAHTEAQVINTFDGVADYLQTYHKLPDNYITKSEAQALGWVASKGNLADVAPGKSIGGDIFSNREGKLPGKSGRTWREADINYTSGFRNCDRILYSSDWLIYKTTDCYQTFTKIR [S132C H149C] | – | – | -4.3 | 4.91 | -4.6 | 4.91 | -4.5 | 4.91 |
| MMKMEGIALKKRLSWISVCLLVLVSAAGMLFSTAAKTETSSHKAHTEAQVINTFDGVADYLQTYHKLPDNYITKSEAQALGWVASKGNLADVAPGKSIGGDIFSNREGKLPGKSGRTWREADINYTSGFRNSDRILYASDWLIYKTTDHYQTFTKIR [S138A] | 1.8 | 4.91 | – | – | – | – | – | – |
| MMKMEGIALKKRLSWISVCLLVLVSAAGMLFSTAAKTETSSHKAHTEAQVINTFDGVADYLQTYHKLPDNYITKSEAQALGWVASKGNLCDVAPGKSIGGDIFSNREGKLPGKSGRTWREADINYTCGFRNSDRILYSSDWLIYKTTDHYQTFTKIR [A90C S127C] | – | – | -1.9 | 4.91 | -1.9 | 4.91 | -1.8 | 4.91 |
